{"source": "patent US20030068416A1", "about": "“Method of lyophylization to reduce solvent content and enhance product recovery” (priority 2001, published 2003)", "format_in_all_cases": "physicochemical", "key": {"[1]": {"experiment": "Residual solvent content of trypsin after lyophilization, sampled after primary drying and at end of cycle (Example 2)", "description": "(§1) When the solvent is water, the residual solvent content referenced herein refer to levels determined by the FDA approved, modified Karl Fischer method (Meyer and Boyd, Analytical Chem., 31:215-219, 1959; May, et al., J. Biol. Standardization, 10:249-259, 1982; Centers for Biologics Evaluation and Research, FDA, Docket No. 89D-0140, 83-93; 1990) or by near infrared spectroscopy.\n(§2) 1 ml aliquots of trypsin alone or with 100 mM sodium ascorbate were placed in 3 ml vials. Samples were prepared in triplicate and subjected to lyophilization. Samples were removed (using sample thief) at the end of primary drying (22 hours after start of the cycle), the cycle continued to completion (62 hours after start of cycle) at this time vials were sealed under vacuum and removed from the freeze dryer."}, "[2]": {"experiment": "Residual solvent content of trypsin frozen overnight at -70 C and lyophilized (Example 3)", "conditions": "frozen overnight at -70 C before lyophilization", "description": "as §1\nas §2, with “vials and frozen overnight at −70° C.” for “vials.”, “quadruplicate” for “triplicate”"}, "[3]": {"experiment": "Residual solvent content of trypsin after lyophilization (Example 1)", "conditions": "primary and secondary drying cycles, 62 hours", "description": "as §1\n1 ml aliquots of trypsin alone or with 100 mM sodium ascorbate were placed in 3 ml vials. Samples were prepared in triplicate and subjected to lyophilization (primary and secondary drying cycles; 62 hours)."}}, "data": [{"substance": "trypsin", "values": [{"measurement": "residual solvent content", "setting": "[1]; absence of sodium ascorbate, following a primary drying cycle alone (22 hours)", "value": "about 5.8 % water"}, {"measurement": "residual solvent content", "setting": "[1]; absence of sodium ascorbate, following primary and secondary drying cycle (62 hours)", "value": "about 5.4 % water"}, {"measurement": "residual solvent content", "setting": "[1]; presence of 100 mM sodium ascorbate, following a primary drying cycle alone (22 hours)", "value": "about 2.8 % water"}, {"measurement": "residual solvent content", "setting": "[1]; presence of 100 mM sodium ascorbate, following primary and secondary drying cycle (62 hours)", "value": "about 1.1 % water"}, {"measurement": "residual solvent content", "setting": "[2]; absence of ascorbate", "value": "about 3.9 % water"}, {"measurement": "residual solvent content", "setting": "[2]; presence of ascorbate (100 mM sodium ascorbate)", "value": 0.7, "unit": "% water"}, {"measurement": "residual solvent content", "setting": "[3]; absence of sodium ascorbate", "value": "about 1.8 % water"}, {"measurement": "residual solvent content", "setting": "[3]; presence of 100 mM sodium ascorbate", "value": "about 0.7 % water"}]}]}
